# Experimental data: patent US6685945
# Tests used:
# [1] = test system: OmpL1-PhoA fusion protein [phosphatase: P00634]
# [2] = biological target: OmpL1, 31 kD outer membrane protein of Leptospira alstoni (native protein) (Leptospira alstoni serovar grippotyphosa); assay: immunoelectron microscopy of intact L. alstoni, protein G-colloidal gold (control serum)
# Chain of OmpL1-PhoA fusion protein [phosphatase: P00634] (P00634 27-471): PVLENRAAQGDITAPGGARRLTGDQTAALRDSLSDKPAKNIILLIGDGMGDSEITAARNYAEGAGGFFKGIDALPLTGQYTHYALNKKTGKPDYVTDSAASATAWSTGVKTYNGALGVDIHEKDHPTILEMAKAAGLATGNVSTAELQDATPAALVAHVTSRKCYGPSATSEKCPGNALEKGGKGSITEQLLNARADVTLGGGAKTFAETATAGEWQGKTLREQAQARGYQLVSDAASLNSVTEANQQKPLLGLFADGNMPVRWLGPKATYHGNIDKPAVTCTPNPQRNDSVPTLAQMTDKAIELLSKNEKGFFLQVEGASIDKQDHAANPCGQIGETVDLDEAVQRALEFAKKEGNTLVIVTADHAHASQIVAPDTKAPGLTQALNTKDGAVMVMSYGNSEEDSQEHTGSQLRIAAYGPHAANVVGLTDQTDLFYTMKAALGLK
Substance,cleavage of the OmpL1-PhoA fusion protein in E. coli IT41 [1],gold particles per twenty organisms (particles per twenty organisms) [2]
"E. coli leader peptidase 1 (strain IT41, temperature sensitive mutation)","Cleavage of the OmpL1-PhoA fusion protein was demonstrated at the permissive temperature of 32° C., but not at the restrictive temperature of 37 °C",
preimmune serum from the same rabbit as the anti-OmpL1 antiserum (antibody),,1
